Here are results for 39 molecules from patent US20080044360A1 (COLLAGEN MEDICAL, published 2008).

Read-outs that look alike come from different tables or passages of the source. Bridge positions count the residues as written; N and C are the ends. Square brackets hold non-standard residues; d marks the D form. Primed or numbered codes have the meaning given here. Side chains are listed from the residue outwards. Ends that are not written are not given here. Gd^D = GdDOTAGA (gadolinium DOTAGA chelate); Bip = N[C@@H](Cc1ccc(-c2ccccc2)cc1)C(=O)O; Gd^T(3) = GdDTPA attached via thiourea; Phg = N[C@H](C(=O)O)c1ccccc1; Dab = NCC[C@H](N)C(=O)O; Gd^T″ = GdDTPA-thiourea; Dap = NC[C@H](N)C(=O)O

Holding throughout (experiment): dried collagen assay
In assay [1] the target is T1, rat collagen, acid soluble, type I, rat tail (Upstate 08-115) (rat, UniProt P02454 152-1207; P02466 86-1125).
T1 construct: tissue extract, gelled and dried in wells; also called dried rat collagen

Assay [2] concerns the target T2, human collagen type I, acid soluble, extracted from placenta (Sigma C7774) (human, UniProt P02452 162-1218; P08123 80-1119).
T2 construct: tissue extract, gelled and dried in wells; also called dried human collagen; h-Collagen

Assay [3] addresses T2, human collagen type I, acid soluble, …. As for the experimental part:
An additional 90 μL is reserved in a HPLC glass vial as a measure of the total concentration.
This is another data set of the same source.

T2 sequence (P02452 162-1218 limits assumed, chain 1 of 2): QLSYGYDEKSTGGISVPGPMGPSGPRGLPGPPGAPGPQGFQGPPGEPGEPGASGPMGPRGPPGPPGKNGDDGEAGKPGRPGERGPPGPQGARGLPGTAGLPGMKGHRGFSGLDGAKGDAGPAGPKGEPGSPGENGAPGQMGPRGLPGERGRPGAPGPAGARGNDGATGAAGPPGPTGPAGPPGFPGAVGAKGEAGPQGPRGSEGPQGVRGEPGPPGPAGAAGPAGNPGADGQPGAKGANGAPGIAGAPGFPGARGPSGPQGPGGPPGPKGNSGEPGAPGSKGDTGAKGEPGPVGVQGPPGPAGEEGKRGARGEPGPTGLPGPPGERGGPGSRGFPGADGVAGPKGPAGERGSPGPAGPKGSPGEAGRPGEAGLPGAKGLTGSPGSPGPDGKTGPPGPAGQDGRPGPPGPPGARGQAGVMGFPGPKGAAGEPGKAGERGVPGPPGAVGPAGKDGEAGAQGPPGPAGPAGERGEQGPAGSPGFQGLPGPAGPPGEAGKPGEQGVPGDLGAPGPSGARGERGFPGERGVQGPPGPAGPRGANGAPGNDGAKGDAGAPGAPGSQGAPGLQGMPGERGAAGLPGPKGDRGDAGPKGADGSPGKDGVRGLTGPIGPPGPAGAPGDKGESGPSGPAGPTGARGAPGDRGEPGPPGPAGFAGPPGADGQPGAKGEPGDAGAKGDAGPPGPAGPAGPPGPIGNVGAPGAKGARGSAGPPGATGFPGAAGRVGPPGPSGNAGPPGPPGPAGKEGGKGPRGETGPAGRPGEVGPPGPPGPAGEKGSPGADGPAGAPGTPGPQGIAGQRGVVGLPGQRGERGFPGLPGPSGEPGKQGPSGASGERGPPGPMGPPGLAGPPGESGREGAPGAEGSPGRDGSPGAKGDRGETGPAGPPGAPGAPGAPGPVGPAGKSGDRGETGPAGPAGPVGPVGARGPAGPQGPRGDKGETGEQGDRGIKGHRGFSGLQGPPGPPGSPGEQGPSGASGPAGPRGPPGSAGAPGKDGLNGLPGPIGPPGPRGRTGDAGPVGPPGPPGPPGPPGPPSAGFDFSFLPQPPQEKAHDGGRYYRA
T2 sequence (P08123 80-1119 limits assumed, chain 2 of 2): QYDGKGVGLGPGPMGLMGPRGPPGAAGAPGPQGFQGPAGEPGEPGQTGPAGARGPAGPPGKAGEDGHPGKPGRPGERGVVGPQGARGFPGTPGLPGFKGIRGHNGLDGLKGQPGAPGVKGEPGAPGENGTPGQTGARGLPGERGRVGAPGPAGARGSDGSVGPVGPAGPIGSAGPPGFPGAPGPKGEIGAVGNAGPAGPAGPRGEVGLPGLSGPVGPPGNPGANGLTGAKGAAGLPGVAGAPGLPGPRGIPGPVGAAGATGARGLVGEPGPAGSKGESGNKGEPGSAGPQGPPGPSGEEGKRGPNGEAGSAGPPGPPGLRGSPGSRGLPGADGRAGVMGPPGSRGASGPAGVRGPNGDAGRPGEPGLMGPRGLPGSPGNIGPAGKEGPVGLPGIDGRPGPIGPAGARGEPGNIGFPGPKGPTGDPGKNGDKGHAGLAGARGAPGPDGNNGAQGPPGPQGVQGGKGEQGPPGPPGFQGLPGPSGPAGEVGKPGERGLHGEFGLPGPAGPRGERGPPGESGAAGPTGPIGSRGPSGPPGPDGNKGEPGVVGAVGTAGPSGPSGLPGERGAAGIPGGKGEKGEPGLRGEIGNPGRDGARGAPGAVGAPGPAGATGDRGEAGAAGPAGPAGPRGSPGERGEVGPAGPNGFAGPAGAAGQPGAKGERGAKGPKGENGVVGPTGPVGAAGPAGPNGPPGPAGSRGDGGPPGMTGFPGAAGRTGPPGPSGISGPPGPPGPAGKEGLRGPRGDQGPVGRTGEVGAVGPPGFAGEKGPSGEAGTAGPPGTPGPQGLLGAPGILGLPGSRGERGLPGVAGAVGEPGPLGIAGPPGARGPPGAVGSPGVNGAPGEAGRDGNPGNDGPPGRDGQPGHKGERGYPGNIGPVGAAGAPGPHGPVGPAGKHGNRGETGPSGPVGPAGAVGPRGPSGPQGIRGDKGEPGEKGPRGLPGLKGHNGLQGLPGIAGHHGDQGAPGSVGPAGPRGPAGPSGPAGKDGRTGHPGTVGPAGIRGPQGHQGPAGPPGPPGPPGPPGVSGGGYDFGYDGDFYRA
T1 sequence (P02454 152-1207, chain 1 of 2): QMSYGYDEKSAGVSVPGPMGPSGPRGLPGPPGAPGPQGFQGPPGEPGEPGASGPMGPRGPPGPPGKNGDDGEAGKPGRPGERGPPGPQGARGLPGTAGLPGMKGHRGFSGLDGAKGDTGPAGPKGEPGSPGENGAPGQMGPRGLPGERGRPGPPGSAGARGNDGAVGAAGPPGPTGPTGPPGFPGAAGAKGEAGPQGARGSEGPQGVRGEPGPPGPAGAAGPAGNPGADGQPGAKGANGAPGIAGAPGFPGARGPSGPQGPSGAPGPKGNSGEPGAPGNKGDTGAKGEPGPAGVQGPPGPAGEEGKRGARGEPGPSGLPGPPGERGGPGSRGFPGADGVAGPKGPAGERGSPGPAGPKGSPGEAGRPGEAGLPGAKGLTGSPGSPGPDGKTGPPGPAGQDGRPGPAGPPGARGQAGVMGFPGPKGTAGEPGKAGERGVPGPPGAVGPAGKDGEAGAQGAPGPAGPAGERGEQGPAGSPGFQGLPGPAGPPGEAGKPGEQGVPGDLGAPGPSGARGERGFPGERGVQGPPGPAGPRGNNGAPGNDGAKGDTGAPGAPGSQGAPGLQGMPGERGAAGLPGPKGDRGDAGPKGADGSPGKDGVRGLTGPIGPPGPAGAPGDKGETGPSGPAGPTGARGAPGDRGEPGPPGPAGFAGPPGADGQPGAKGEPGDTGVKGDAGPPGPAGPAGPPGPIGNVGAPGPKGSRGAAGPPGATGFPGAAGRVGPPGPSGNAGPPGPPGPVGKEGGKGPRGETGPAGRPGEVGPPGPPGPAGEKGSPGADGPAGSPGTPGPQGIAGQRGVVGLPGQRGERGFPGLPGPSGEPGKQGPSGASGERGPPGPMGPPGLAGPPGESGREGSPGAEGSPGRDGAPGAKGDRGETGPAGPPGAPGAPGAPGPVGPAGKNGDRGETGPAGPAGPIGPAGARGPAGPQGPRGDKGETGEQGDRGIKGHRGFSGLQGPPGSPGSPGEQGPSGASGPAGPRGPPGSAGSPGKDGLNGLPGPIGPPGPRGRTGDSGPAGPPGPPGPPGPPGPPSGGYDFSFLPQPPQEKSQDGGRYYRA
T1 sequence (P02466 86-1125, chain 2 of 2): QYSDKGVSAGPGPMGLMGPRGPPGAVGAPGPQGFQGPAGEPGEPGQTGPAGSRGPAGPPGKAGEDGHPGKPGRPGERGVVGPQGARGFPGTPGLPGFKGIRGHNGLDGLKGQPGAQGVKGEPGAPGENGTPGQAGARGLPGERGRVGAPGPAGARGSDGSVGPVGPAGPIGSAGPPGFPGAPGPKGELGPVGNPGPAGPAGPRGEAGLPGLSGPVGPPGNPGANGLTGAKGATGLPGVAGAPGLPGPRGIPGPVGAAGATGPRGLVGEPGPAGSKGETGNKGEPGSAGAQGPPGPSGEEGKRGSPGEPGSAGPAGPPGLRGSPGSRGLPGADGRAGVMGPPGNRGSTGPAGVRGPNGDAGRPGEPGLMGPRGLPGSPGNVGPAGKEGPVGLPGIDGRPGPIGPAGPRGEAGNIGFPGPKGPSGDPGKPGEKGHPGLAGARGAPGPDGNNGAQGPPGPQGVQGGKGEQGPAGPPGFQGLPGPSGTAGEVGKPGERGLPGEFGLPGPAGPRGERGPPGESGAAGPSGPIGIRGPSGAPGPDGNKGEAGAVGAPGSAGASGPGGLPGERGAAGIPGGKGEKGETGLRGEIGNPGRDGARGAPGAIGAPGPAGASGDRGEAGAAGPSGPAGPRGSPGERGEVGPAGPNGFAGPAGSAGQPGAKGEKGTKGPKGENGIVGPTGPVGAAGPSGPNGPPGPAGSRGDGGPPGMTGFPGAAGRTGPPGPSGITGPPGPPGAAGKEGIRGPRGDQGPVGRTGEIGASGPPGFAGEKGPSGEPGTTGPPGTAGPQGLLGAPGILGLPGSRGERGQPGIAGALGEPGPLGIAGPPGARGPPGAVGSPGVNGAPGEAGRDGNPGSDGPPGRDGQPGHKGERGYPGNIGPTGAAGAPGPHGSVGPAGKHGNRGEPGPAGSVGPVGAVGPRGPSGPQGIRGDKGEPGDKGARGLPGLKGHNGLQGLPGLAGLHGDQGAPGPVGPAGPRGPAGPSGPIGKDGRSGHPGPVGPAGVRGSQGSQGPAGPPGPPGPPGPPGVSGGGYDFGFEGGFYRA

Regarding {Gd^T″}-[Dap](Gd^T″)[Dap]([Dap-Gd^T″-Gd^T″])WHCYTYFPHHYCVYG (disulfide 5-14; also: X2: inner Dap bears two Gd^T) [Compound ID 1002], the “% bound” value in assay [1] worked out at 45%; in assay [2] it was 44%.

On to WISCESSEEKISYCWRA (disulfide 4-14 (inferred), cyclic, disulfide) [SEQ ID NO 97], for which, in assay [3], the “% bound” value is 13%.

With {Gd^T″}-G[Dab]([Gly-Gd^T″])WHCYTK(Gd^T″)FPHHYCVY[Bip] (disulfide 5-14) [Compound ID 1007], the “% bound” value in assay [1] was found to be 92%; in assay [2], 87%.

As for NWYCTGTKSWECFWK (disulfide 4-12 (inferred), cyclic, disulfide) [SEQ ID NO 7], the “% bound” value in assay [3] is 11%.

With {Gd^T″}-K(Gd^T″)WHCYTK(Gd^T″)FPHHYCVY[Bip] (disulfide 4-13) [Compound ID 1008], the “% bound” value is 93% in assay [1] and 94% in assay [2].

In the case of WTDCQWMDEQLWTCRWD (disulfide 4-14 (inferred), cyclic, disulfide) [SEQ ID NO 94], the “% bound” value in assay [3] amounted to 21%.

For WTDCQWMDEQIWTCRWD (disulfide 4-14 (inferred), cyclic, disulfide) [SEQ ID NO 95], the “% bound” value in assay [3] was determined as 5%.

With YPACDDQTHLWNLACWPA (disulfide 4-15 (inferred), cyclic, disulfide) [SEQ ID NO 103], the “% bound” value in assay [3] worked out at 2%.

YHACYQAGCYIW (disulfide 4-9 (inferred), cyclic, disulfide) [SEQ ID NO 107]: the “% bound” value in assay [3] worked out at 9%.

Consider WWACQKGQHDWEKCHWL (disulfide 4-14 (inferred), cyclic, disulfide) [SEQ ID NO 93], for which the “% bound” value in assay [3] was found to be 5%.

Consider WWTCHMTWSGQWDSCKWH (disulfide 4-15 (inferred), cyclic, disulfide) [SEQ ID NO 101], for which the “% bound” value in assay [3] amounted to 56%.

As for NWKCWGVVKWECIWA (disulfide 4-12 (inferred), cyclic, disulfide) [SEQ ID NO 5], the “% bound” value in assay [3] was 24%.

As to {Gd^T″}-GK([Gly-Gd^T″])WHCYTK(Gd^T″)FPHHYCVY[Bip]R (disulfide 5-14) [Compound ID 1009], the “% bound” value came out at 96% in assay [1] and 93% in assay [2].

{Gd^D}-GK([Gly-Gd^D])WHCTTK(Gd^D)FPHHYCLY[Bip] (disulfide 5-14) [Compound ID 1001]: the “% bound” value is 81% in assay [1] and 83% in assay [2].

Consider {Gd^T″}-GK([Gly-Gd^T″])WHCYTK(Gd^T″)FPHHYCVY[Bip] (disulfide 5-14) [Compound ID 1004], for which the “% bound” value in assay [1] came out at 90%; in assay [2] it was 91%.

For the molecule {Gd^T″}-GK([Gly-Gd^T″])WHCYTK(Gd^T″)FPHHYCK(Gd^T″)Y[Bip] (disulfide 5-14) [Compound ID 1012], the “% bound” value in assay [1] was 92%; in assay [2], 91%.

GWQCFGASDWHCTWV (disulfide 4-12 (inferred), cyclic, disulfide) [SEQ ID NO 8]: in assay [3], the “% bound” value was 9%.

Take {Gd^T″}-GYK([Tyr-Gly-Gd^T″])WHCTTYFPHHYCLYG (disulfide 6-15 (inferred); not fully specified (C-terminus)) [Compound ID 981]: the “% bound” value in assay [1] amounted to 81%; in assay [2] it was 73%.

As for {Gd^T″}-GVK([Val-Gly-Gd^T″])WHCTTYFPHHYCLYG (disulfide 6-15 (inferred); not fully specified (C-terminus)) [Compound ID 982], the “% bound” value turned out to be 47% in assay [1] and 40% in assay [2].

In the case of {Gd^T″}-GHK([His-Gly-Gd^T″])WHCTTYFPHHYCLYG (disulfide 6-15 (inferred); not fully specified (C-terminus)) [Compound ID 984], the “% bound” value in assay [1] turned out to be 69%; in assay [2], 67%.

As for {Gd^T″}-GFK([Phe-Gly-Gd^T″])WHCTTYFPHHYCLYG (disulfide 6-15 (inferred); not fully specified (C-terminus)) [Compound ID 983], the results for the “% bound” value in assay [1] and in assay [2] were 59% and 58%, respectively.

{Gd^T″}-GK([Gly-Gd^T″])WHCYT[Dab](Gd^T″)FPHHYCVY[Bip] (disulfide 5-14) [Compound ID 1005]: the “% bound” value in assay [1] was determined as 95%; in assay [2], 90%.

Turning to {Gd^T″}-GK([Gly-Gd^T″])WHCYTYFPHHYCLYVK(Gd^T″) (disulfide 5-14 (inferred); not fully specified (C-terminus)) [Compound ID 989], the “% bound” value in assay [1] was 74%; in assay [2], 67%.

With {Gd^T″}-GQWHCYTYFPHHYCLYGK(Gd^T″) (disulfide 5-14 (inferred); not fully specified (C-terminus)) [Compound ID 994], the “% bound” value in assay [1] was 84%; in assay [2], 86%.

{Gd^T″}-GK([Gly-Gd^T″])WHCYTK(Gd^T″)FPHHYCLYGK(Gd^T″) (disulfide 5-14 (inferred)) [Compound ID 995]: the “% bound” value in assay [1] amounted to 42%; in assay [2], 51%.

Consider {Gd^T″}-GQWHCYTK(Gd^T″)FPHHYCLYGK(Gd^T″) (disulfide 5-14 (inferred); not fully specified (C-terminus)) [Compound ID 993], for which the “% bound” value in assay [1] amounted to 70%; in assay [2], 75%.

Consider TWQCSGNQKWSCEWF (disulfide 4-12 (inferred), cyclic, disulfide) [SEQ ID NO 6], for which the “% bound” value in assay [3] came to 20%.

Take WAYCMTDPSGKYRYCQNW (disulfide 4-15 (inferred), cyclic, disulfide) [SEQ ID NO 102]: the “% bound” value in assay [3] worked out at 31%.

In the case of {Gd^D}-K(Gd^D)K(Gd^D)AWHCYTYFPHHYCVYG (disulfide 6-15 (inferred)) [Compound ID 1016], the “% bound” value in assay [1] was 50%; in assay [2], 48%.

As to {Gd^D}-K(Gd^D)K(Gd^D)YWHCYTYFPHHYCVYG (disulfide 6-15 (inferred)) [Compound ID 1018], the “% bound” value in assay [1] is 55%; in assay [2], 53%.

Consider {Gd^D}-K(Gd^D)K(Gd^D)LWHCYTYFPHHYCVYG (disulfide 6-15 (inferred)) [Compound ID 1017], for which the “% bound” value in assay [1] is 18%; in assay [2], 25%.

TWNCYGVTEWHCYMI (disulfide 4-12 (inferred), cyclic, disulfide) [SEQ ID NO 9]: the “% bound” value in assay [3] came out at 7%.

WWGCRQGTGEHWSHCMWF (disulfide 4-15 (inferred), cyclic, disulfide) [SEQ ID NO 100]: the “% bound” value in assay [3] was 67%.

{Gd^D}-K(Gd^D)K(Gd^D)GWHCYTYFPHHYCTYG (disulfide 6-15 (inferred)) [Compound ID 1015]: the “% bound” value in assay [1] is 30%; in assay [2], 29%.

WQLCSSRNDHVAYCFVS (disulfide 4-14 (inferred), cyclic, disulfide) [SEQ ID NO 96]: the “% bound” value in assay [3] was determined as 17%.

For the molecule {Gd^T(3)}-GK([Gly-Gd^T(3)])WHCTTYFPHHYCLY[Bip]K(Gd^T(3)) (disulfide 5-14; not fully specified (C-terminus)) [Compound ID 977], the “% bound” value in assay [1] turned out to be 43%; in assay [2], 40%.

Regarding {Gd^T(3)}-GK([Gly-Gd^T(3)])WHCYTYFPHHYCLY[Phg]K(Gd^T(3)) (disulfide 5-14; not fully specified (C-terminus)) [Compound ID 986], the “% bound” value in assay [1] turned out to be 67%; in assay [2], 60%.

With {Gd^T″}-GK([Gly-Gd^T″])WHCYT[Dap](Gd^T″)FPHHYCVY[Bip] (disulfide 5-14) [Compound ID 1006], the figures for the “% bound” value in assay [1] and in assay [2] were 87% and 89%, respectively.

In the case of {Gd^T″}-GK([Gly-Gd^T″])WHCYTK(Gd^T″)FPHHYCVYYY (disulfide 5-14 (inferred)) [Compound ID 1010], the “% bound” value in assay [1] was found to be 89%; in assay [2] it was 92%.
